From patent CN114685654A (GUANGDONG DONGSUNANG PHARMACEUTICAL CO LTD, dated 2022)
Positions count from the first letter of the chain named.

B1: MM21H (antibody, V domains shown)
VH: QIQLVQSGPELKKTGETVKMSCKASGYTFTNYGMNWVKQAPGKGLKLMGWINTYTGKPTYADDFKGRFAFSLETSASTAYLQINNLKNEDTATYFCATNYYDYDVAYWGQGTLVTVSA
VL: DIVMTQAAFSNPVTLGTSASISCRSSKSLLHSNGITYLYWFLQKPGQSPQVLIYQMSSLASGVPDRFSSSGSGTDFTLRISRVEAEDVGVYYCAQTLELPTFGGGTKLEIK
notes: also called MM21H鼠源单克隆抗体
B2: MM24T (antibody, mouse IgG1, kappa, V domains shown)
VH: B1 VH with T14P, M20I, I83L, V105I, T115A
VL: DIVMTQAAFSNPVTLGTSASISCRSSKSLLHSNGITYLYWFLQKPGQSPQVLIYQMSNLASGVPDRFSSSGSGTDFTLRISRVEAEDVGVYYCAQTLELPTFGGGTKLEIKR
notes: only the CDRs are; also called MM24T重组抗体; MM24T抗体
B3: MM24H (antibody, V domains shown)
VH: B1 VH with T14P, M20I, I83L, V105I, T115A
VL: B1 VL with S58N
notes: also called MM24H鼠源单克隆抗体
B4: MM21T (antibody, mouse IgG1, kappa, V domains shown)
VH: B1 VH
VL: B2 VL with N58S
notes: only the CDRs are; also called MM21T重组抗体; MM21T抗体

Tests used:
蛋白A [1] = target: T1, 蛋白A; test: sandwich ELISA, antibody coated at 2 μg/mL, protein at 5 and 10 ng/mL, detection with HRP mouse anti-human IgG4 Fc
T1 construct: also called FGF21-Fc融合蛋白
T1 chain: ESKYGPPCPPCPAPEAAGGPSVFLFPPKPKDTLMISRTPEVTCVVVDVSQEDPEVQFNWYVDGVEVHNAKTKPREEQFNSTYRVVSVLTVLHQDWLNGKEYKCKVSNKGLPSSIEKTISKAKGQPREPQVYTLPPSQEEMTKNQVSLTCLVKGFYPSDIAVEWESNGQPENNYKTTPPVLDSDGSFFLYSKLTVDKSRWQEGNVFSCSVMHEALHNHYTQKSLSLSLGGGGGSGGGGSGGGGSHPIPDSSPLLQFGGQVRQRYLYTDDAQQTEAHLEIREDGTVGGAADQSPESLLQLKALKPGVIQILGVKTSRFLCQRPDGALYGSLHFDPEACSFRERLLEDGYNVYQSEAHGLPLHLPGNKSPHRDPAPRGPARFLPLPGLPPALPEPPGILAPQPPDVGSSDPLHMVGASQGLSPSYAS

蛋白B [2] = target: T2, 蛋白B; test: sandwich ELISA, antibody coated at 2 μg/mL, detection with HRP mouse anti-human IgG4 Fc
T2 construct: Counter-screen protein; also called FGF21-Fc融合蛋白
T2 chain: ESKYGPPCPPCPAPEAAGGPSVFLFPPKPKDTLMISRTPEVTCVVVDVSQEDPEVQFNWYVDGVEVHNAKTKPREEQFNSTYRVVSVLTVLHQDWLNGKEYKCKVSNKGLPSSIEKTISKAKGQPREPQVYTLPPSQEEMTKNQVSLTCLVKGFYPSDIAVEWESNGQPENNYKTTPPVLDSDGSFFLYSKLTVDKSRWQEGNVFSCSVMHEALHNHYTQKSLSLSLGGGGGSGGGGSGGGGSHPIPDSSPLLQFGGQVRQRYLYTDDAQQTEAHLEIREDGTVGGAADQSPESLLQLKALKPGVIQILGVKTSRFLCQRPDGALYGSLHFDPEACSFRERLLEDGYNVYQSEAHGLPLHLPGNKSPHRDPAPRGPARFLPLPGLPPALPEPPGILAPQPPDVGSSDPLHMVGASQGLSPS

蛋白A [3] = target: T1, 蛋白A; test: ELISA, protein coated at 0.1, 1, 5 μg/mL, antibody 1 μg/mL
蛋白B [4] = target: T2, 蛋白B; test: ELISA, protein coated
蛋白B [5] = target: T2, 蛋白B; test: indirect ELISA, hybridoma supernatant on coated protein
蛋白A [6] = target: T1, 蛋白A; test: as above

Binder | binding result (蛋白A [3]) | binding result (蛋白B [4]) | also measured
B1 |  |  | binding result (蛋白A [1]): binds; binding result (蛋白B [2]): no binding (tested: 5ng/mL、10ng/mL)
B2 | binds | no binding (tested: antibody 1μg/mL; coating 0.1、1、5μg/mL) | 
B3 |  |  | binding result (蛋白B [5]): no binding; binding result (蛋白A [6]): binds
B4 | binds | no binding (tested: antibody 1μg/mL; coating 0.1、1、5μg/mL) | 
